Data on five molecules can be found in patent CN109734806A (ANHUI ANKE BIOTECHNOLOGY GROUP CO LTD, dated 2019).

Experiment [1] addresses T1, 人TIGIT (膜表达人TIGIT稳转细胞株DG44-TIGIT) (human, UniProt Q495A1 22-244).
T1 construct: whole, on cells; also called 细胞表面的TIGIT蛋白; huTIGIT
T1 sequence (looked up): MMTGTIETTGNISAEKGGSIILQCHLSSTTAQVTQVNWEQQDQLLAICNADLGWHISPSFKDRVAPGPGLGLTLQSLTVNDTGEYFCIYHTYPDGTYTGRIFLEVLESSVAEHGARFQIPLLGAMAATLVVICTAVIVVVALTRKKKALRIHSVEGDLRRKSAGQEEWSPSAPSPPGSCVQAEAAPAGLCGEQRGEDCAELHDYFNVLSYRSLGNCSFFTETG
The experiment in a line: FACS binding to DG44-TIGIT cells.

Experiment [2] deals with T2, rhTIGIT-Avi-His (human, UniProt Q495A1 22-130).
T2 construct: range 22-130; Expressed in Expi 293 cells, Ni-NTA purified; also called rhTIGIT-Avi-His抗原; not shown: C-terminal Avi tag and His tag from vector pCD-Avi-His
T2 sequence (looked up): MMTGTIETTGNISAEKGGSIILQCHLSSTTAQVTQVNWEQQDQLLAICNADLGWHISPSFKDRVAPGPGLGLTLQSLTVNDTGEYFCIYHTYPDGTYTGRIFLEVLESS
The experiment in a line: ELISA, rhTIGIT-Avi-His coated at 0.5 ug/mL, antibody titrated.

The target in experiment [3] is T1, 人TIGIT (膜表达人TIGIT稳转细胞株DG44-TIGIT). Nature of the experiment: FACS blocking on DG44-TIGIT cells, competitor rhCD155-cFc-647 (1 ug/ml).
For experiment [4], the target named is T3, rhTIGIT-Avi-His-bio (human, UniProt Q495A1 22-130, biotin linked to the Avi tag by BirA).
T3 construct: range 22-130; Biotinylated form of rhTIGIT-Avi-His, captured on SA chip for SPR; also called 生物素标记的抗原rhTIGIT-Avi-His-bio; not shown: C-terminal Avi tag (biotinylated) and His tag from vector pCD-Avi-His
T3 sequence (looked up): T2 sequence (looked up)
Nature of the experiment: SPR (Biacore T200), rhTIGIT-Avi-His-bio captured on SA chip, antibody as analyte. (In general: In SPR one partner is held on a chip, and binding of the other changes the refractive index at the surface.)

In experiment [5] the target is T3, rhTIGIT-Avi-His-bio. Nature of the experiment: SPR, KD of D1Y1A against KD of 3TB3.
Experiment [6] addresses T2, rhTIGIT-Avi-His. The experiment in a line: ELISA on coated rhTIGIT-Avi-His. Background: ELISA stands for enzyme-linked immunosorbent assay.

B1: TDC8 (antibody, V domains shown)
VH: DVQLQESGPGLVKPSETLSLTCTVSGGSISSKGFTWSWIRQPPGKGLEWIGQISPLDSSTSYNPSLKSRVTISVDTSKNQFSLKLSSVTAADTSVYYCARGIWTYLYGFDYWGQGTLVTVSS
VL: DIVLTQSPATLSLSPGERATLSCRASQSIHAGYLAWYQQKPGQAPRLLIYWTNLRATGVPTRFSGSGSGTDFTLTISSLEPEDFAVYYCLQLMRYPPTFGQGTKLEIKR
notes: also called 全人源抗人TIGIT单抗TDC8
Consider B1, for which the concentration giving a half-maximal response (EC50) (as a rule, the concentration giving half of the maximal effect) in experiment [1] amounted to 0.0585 µg/mL; in experiment [2] it was 0.293 µg/mL. For the same molecule, the IC50 (in general, the midpoint of a concentration-inhibition curve) in experiment [3] was determined as 0.308 µg/mL.

B2: 3TB3 (antibody, V domains shown)
VH: DVQLQESGPGLVKPSETLSLTCTVSGGSISGGYSWSWIRQPPGKGLEWIGSIVPHRSATSYNPSLKSRVTISVDTSKNQFSLKLSSVTAADTSVYYCARSYGGNRLDYWGQGTLVTVSS
VL: DIVLTQSPATLSLSPGERATLSCRASQGVGIRLSWYQQKPGQAPRLLIYYTAYRATGVPTRFSGSGSGTDFTLTISSLEPEDFAVYYCLQTFGDPYTFGQGTKLEIKR
notes: Parent of D1Y1A; also called 全人源抗人TIGIT单抗3TB3; 野生型3TB3
Turning to B2, the EC50 in experiment [1] came out at 0.0589 µg/mL; in experiment [2], 0.0307 µg/mL. Moreover, the concentration for half-maximal inhibition (IC50) in experiment [3] worked out at 0.212 µg/mL. Besides, the affinity in experiment [4], expressed as Kd, was 1130 pM.

B3: TBB8 (antibody, V domains shown)
VH: DVQLQESGPGLVKPSETLSLTCTVSGYSISTGYAWSWIRQPPGKGLEWIGSISAFGGNTYYNPSLKSRVTISVDTSKNQFSLKLSSVTAADTSVYYCARTARWIAFDYWGQGTLVTVSS
VL: DIVLTQSPATLSLSPGERATLSCRASQDIGVSLNWYQQKPGQAPRLLIYWTSFRATGVPTRFSGSGSGTDFTLTISSLEPEDFAVYYCQQANGVPLFTFGQGTKLEIKR
notes: also called 全人源抗人TIGIT单抗TBB8
On to B3, for which the half-maximal effective concentration (EC50) in experiment [1] amounted to 0.096 µg/mL; in experiment [2], 0.28 µg/mL. The same molecule registered an IC50 in experiment [3] of 0.563 µg/mL.

B4: D1Y1A (antibody, V domains shown)
VH: DVQLQESGPGLVKPSETLSLTCTVSGGSISYWSWIRQPPGKGLEWIGSIATSYNPSLKSRTSVDTSKNQFSLKLSSVTAADTAVYYCARSYGGNRLDYWGQGTLVTVSS
VL: DIVLTQSPATLSLSPGERATLSCRASQGVRLSWYQQKPGQAPRLLIYYYRATGVPARFSGSGSGTDFTLTISSLEPEDFAVYYCLQFPTFGQGTKLEIK
Turning to B4, in experiment [5], the “fold improvement of affinity against 3TB3” value was approximately 4 fold. The “fold improvement against 3TB3 (ELISA)” value in experiment [6] was approximately 3 fold. Further, binding in experiment [4] was put at a Kd of 266 pM.

B5: 5TB10 (antibody, V domains shown)
VH: DVQLQESGPGLVKPSETLSLTCTVSGDSVSDAGVGWNWIRQPPGKGLEWIGTIVPRRGITTYNPSLKSRVTISVDTSKNQFSLKLSSVTAADTSVYYCARVTTAGFDYWGQGTLVTVSS
VL: DIVLTQSPATLSLSPGERATLSCRASQDVKILLNWYQQKPGQAPRLLIYWTSDRATGVPTRFSGSGSGTDFTLTISSLEPEDFAVYYCQQHLDRLPYTFGQGTKLEIKR
notes: also called 全人源抗人TIGIT单抗5TB10
In the case of B5, the results for the half-maximal effective concentration (EC50) in experiment [1] and in experiment [2] were 0.0872 µg/mL and 0.754 µg/mL, respectively. The IC50 in experiment [3] is 0.435 µg/mL.
